Test results reported in the supplement of paper PMC10567573.
± gives the standard deviation.

Experiment: protein stability index of a GFP-peptide fusion (GPS, HEK-293T) (PSI 1-6); higher = more stable
[1] = treatment: DMSO, c terminus: a fixed tail appended
[2] = treatment: MLN4924 1 uM, 8 h, c terminus: a fixed tail appended
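Also: 24-mer peptide tiles fused after GFP, lentivirally expressed, FACS-sorted into six equal bins by GFP/DsRed ratio, decoded by Illumina sequencing, PSI is the read-weighted mean bin number.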

Row | Sequence | protein stability index [1] | protein stability index [2] | protein stability index (treatment: DMSO, c terminus: native) | protein stability index (treatment: MLN4924 1 uM, 8 h, c terminus: native)
1 | AAARIRAQVPDTRWSRVGGQRFYS | 2.713 ± 0.004 | 3 ± 0.61 | – | –
2 | AACSSKRSPIIDVKNDRDRVGHKS [SERPINB5] | 4.85 ± 0.35 | 4.77 ± 0.11 | – | –
3 | AAENEFVLLKKDVDAAYANKVELQ [KRT71] | 4.7 ± 0.21 | 4.54 ± 0.39 | – | –
4 | AAVSRKKKRRMGTYSLVPKKKTKV [EHMT1] | 4.29 ± 0.32 | 4.32 ± 0.24 | – | –
5 | ACGLSDVAHVESLQEKSQCALEEY [NR2F2] | 4.58 ± 0.28 | 4.67 ± 0.3 | – | –
6 | ADFSSMLSEEEKEELKAELVQLED [TPD52L1] | 5.47 ± 0.32 | 5.3 ± 0.37 | – | –
7 | ADRLVRVHGDPAVWWVSQFVKYLI [FUT8] | 2.25 ± 0.35 | 2.11 ± 0.26 | – | –
8 | ADRQCQLTFGPDSRHCPQLPPPCA [ADAMTS4] | 4.08 ± 0.16 | 4.08 ± 0.081 | – | –
9 | ADVNAQSSTGNTALTYACAGGYVD [ANKRD17] | 4.21 ± 0.39 | 4.49 ± 0.16 | – | –
10 | AEERRRQNLQEEKERKLECLPPEP [FAF2] | 5.71 ± 0.18 | 5.51 ± 0.42 | – | –
11 | AEGAVPETQTLTGWSKGFIGMHRE [RHOBTB1] | 4.09 ± 0.12 | 4 ± 0.23 | – | –
12 | AEIATASASASTTTTVTAVTAEVD [SNAP91] | 5.62 ± 0.23 | 5.47 ± 0.39 | – | –
13 | AELAGVIKRLWKDSGVQACFNRSR [GNAI1] | 2.62 ± 0.23 | 2.42 ± 0.72 | – | –
14 | AESWCYTQVKVVKFSYMWTINNFS [SPOPL] | 3.24 ± 0.56 | 3.01 ± 0.5 | – | –
15 | AFSYSSSSRFSSSRLLGSASPSSS [PRPH] | 3.04 ± 0.21 | 3.09 ± 0.051 | – | –
16 | AGDAEVCPTPARLATTEKKTEQQR [NOP53] | 5.37 ± 0.23 | 5.44 ± 0.16 | – | –
17 | AGLNKDKETEERTDGERVAEVAPE [SDE2] | 5.46 ± 0.33 | 5.63 ± 0.16 | – | –
18 | AGQVTALPVNSPMNKGDTEVMKCI [CHGA] | 4.12 ± 0.34 | 4.57 ± 0.22 | – | –
19 | AGSTAGAAETRGAVEGAARTTPSR [PALM] | 5.11 ± 0.36 | 5.14 ± 0.27 | – | –
20 | AHWQCGATLTQVSVEYGYRPGATA [FCHO1] | 2.29 ± 0.18 | 2.24 ± 0.49 | – | –
21 | AILLDAHHKTYDPTYSDFCQFRPP [VDR] | 2.31 ± 0.2 | 2.34 ± 0.29 | – | –
22 | AIMLLPDENREVLQTLLYFLSDVT [DLC1] | 2.12 ± 0.23 | 2.19 ± 0.13 | – | –
23 | AIVFTDGRAQDDVSEWASKAKANG [MATN2] | 3.92 ± 0.29 | 4.26 ± 0.34 | – | –

Row | Sequence | protein stability index [1] | protein stability index [2] | protein stability index (treatment: DMSO, c terminus: native) | protein stability index (treatment: MLN4924 1 uM, 8 h, c terminus: native)
24 | AKDMKKAVAHMKYMGKGSMTGLAL [MATN2] | – | 2.37 ± 0.3 | – | –
25 | AKFWPRRRFNFFVLENNLEAVARH [DNAAF3] | 2.13 ± 0.33 | 2.09 ± 0.19 | – | –
26 | AKGDNVYEFHLEFLDLVKPEPVYK [HACD3] | 2.41 ± 0.09 | 2.54 ± 0.49 | – | –
27 | AKILPSPVQGSSEDNLSLVCLPRS [DRICH1] | 3.94 ± 0.18 | 4.04 ± 0.18 | – | –
28 | ALCQGLYFHINQTLREAHFHSLQH [FAM104A] | 2.81 ± 0.54 | 2.8 ± 0.51 | – | –
29 | ALGDAFADLSQKSPELQEEFGYNA [ARFIP2] | 4.6 ± 0.17 | 4.63 ± 0.22 | – | –
30 | ALHCPTGTEYTCKVYPVQEALAVL [TRIB3] | 2.27 ± 0.39 | 2.28 ± 0.32 | – | –
31 | ALKERADSLAKEIQYLKDLIEEVR [ATF4] | 4.49 ± 0.36 | 4.59 ± 0.057 | – | –
32 | ALQNYNNELVKCIEELCQKREELC [SSNA1] | 2.94 ± 0.18 | 2.94 ± 0.33 | – | –
33 | ALSPKTTITMAHLLAAREDLSKII [FAM98B] | 2.29 ± 0.27 | 2.55 ± 0.065 | – | –
34 | ALTNIQNCMAEKRETVLIETQLKA [C8orf76] | 3.19 ± 0.34 | 3.09 ± 0.47 | – | –
35 | ALVIMWQKHYVYGPLPQSFDKEWV [COX4I1] | 2.88 ± 0.33 | 2.92 ± 0.39 | – | –
36 | ALWCAAGAGHFEVVKLLVSHGANV [FEM1B] | 2.51 ± 1.3 | 2.37 ± 0.26 | – | –
37 | AMCVRYDGVEVDDSYCDALTRPEP [ADAMTSL2] | 4.37 ± 0.33 | 4.31 ± 0.28 | – | –
38 | AMRAGVLADDHLIEVNGENVEDAS [PDZK1] | 5.41 ± 0.23 | 5.3 ± 0.11 | – | –
39 | ANGEIQRHAEQQALRLEVRAGPDS [CARM1] | 4.56 ± 0.67 | 4.74 ± 0.19 | – | –
40 | APAASEGAAAPATPTPVAAALDAC [SNAP91] | 5.32 ± 0.23 | 5.18 ± 0.31 | – | –
41 | APGADVKVHRARKTMPKSVVGLHA [EHMT1] | 3.7 ± 0.18 | 3.91 ± 0.41 | – | –
42 | APQHPAASALRTRMTGGRPPLPPP [DYRK1B] | 4.38 ± 0.15 | 4.41 ± 0.23 | – | –
43 | APSATIHQGEEEGPLDIWAVVKPG [FBXO34] | 4.71 ± 0.27 | 4.79 ± 0.13 | – | –
44 | AQAQALAAQAAAAAHAAQAHRERN [PI4K2A] | 4.9 ± 0.076 | 4.8 ± 0.12 | – | –
45 | AQGFAADVRLMFSNCYKYNPPDHE [BRD3] | 2.99 ± 0.31 | 2.8 ± 0.39 | – | –
46 | AQNAVRLHYGLPVVVKLLHPPSHW [CTNNB1] | 2.32 ± 0.23 | 2.23 ± 0.048 | – | –

Row | Sequence | protein stability index [1] | protein stability index [2] | protein stability index (treatment: DMSO, c terminus: native) | protein stability index (treatment: MLN4924 1 uM, 8 h, c terminus: native)
47 | AREGRETLKCLSHHVADAYTSSQK [TOR1AIP2] | 4.48 ± 0.35 | 4.44 ± 0.37 | – | –
48 | AREYYSEADASHCIQQILEAVLHC [CAMK2A] | 2.48 ± 0.26 | 2.55 ± 0.24 | – | –
49 | ARFAEKEELMLVHSLEYIDLMETT [HDAC6] | 2.66 ± 0.17 | 2.75 ± 0.38 | – | –
50 | ARRQWRDECLMRLAKLKSQVQPQ [CRYL1] | – | – | 2.9 ± 0.77 | 3.33 ± 0.73
51 | ASDGSDFTFLRPLSVQQPTALALE [PCDHGC5] | 3.82 ± 0.17 | 3.82 ± 0.32 | – | –
52 | ASIPEHLAYGSVITVKNLRMAIGY [POMT2] | 2.41 ± 0.29 | 2.43 ± 0.33 | – | –
53 | ASKLKETSPLTAEKLCIYTDNSIK [CCND2] | 4 ± 0.18 | 4.05 ± 0.092 | – | –
54 | ASLGREESRAPSPLLHKDSASLEV [CBY2] | 4.79 ± 0.31 | 4.85 ± 0.19 | – | –
55 | ASSVHLKSESSLPHQTSKMENLPG | 4.8 ± 0.26 | 4.85 ± 0.49 | – | –
56 | ASVAMICAIASGSELSESAFGYFI [SLC29A1] | 2.94 ± 0.68 | 2.48 ± 0.52 | – | –
57 | ATCRLCGEQVGRGPGFHAGTSALW [ZBED3] | 2.2 ± 0.57 | 2.39 ± 0.12 | – | –
58 | ATGDTALTYACENGHTDVADVLLQ [ANKRD17] | 4.41 ± 0.21 | 4.56 ± 0.08 | – | –
59 | ATGKHYGASSCDGCKGFFRRSVRK [HNF4A] | 3.35 ± 0.19 | 3.73 ± 0.21 | – | –
60 | ATQMMVDIDGDVLVFLELAQFHCA [RHOBTB2] | 3.08 ± 0.33 | 2.89 ± 0.75 | – | –
61 | AVGSGERRGGGPVFPAPVVGSGGA [ZBTB22] | 4.39 ± 0.19 | 4.45 ± 0.38 | – | –
62 | AVPKRLLEIVGREGVSLTAVLTTH [HAGHL] | 2.5 ± 0.39 | 2.2 ± 0.6 | – | –
63 | AYISLVEEEDQHMKLSLGGSEMGL [KLHL13] | 2.98 ± 0.38 | 3.06 ± 0.52 | – | –
64 | CAACKTPIRNRAFYMEEGVPYCER [PDLIM7] | 2.93 ± 0.3 | 3.38 ± 0.18 | – | –
65 | CARMLYNYGADTNTRNYEGQTPLA [ASB7] | 2.63 ± 0.28 | 2.62 ± 0.36 | – | –
66 | CDVWSIGCILFEYYRGFTLFQTHE [CLK3] | 3.1 ± 0.48 | 3.25 ± 0.44 | – | –
67 | CFKAAFLDFKDLLESEDWEEDNWD [TEX19] | 2.95 ± 0.2 | 3.24 ± 0.36 | – | –
68 | CFKAKLHRKRGSQPPDMASALTDR [RSPH3] | 3.66 ± 0.26 | 3.95 ± 0.28 | – | –
69 | CGRSEVRPVAPRRPRDAVGQRGAQ [SMAD6] | 4.37 ± 0.24 | 4.57 ± 0.11 | – | –

Row | Sequence | protein stability index [1] | protein stability index [2] | protein stability index (treatment: DMSO, c terminus: native) | protein stability index (treatment: MLN4924 1 uM, 8 h, c terminus: native)
70 | CIKIWDVTSQATLLTITKAHSNAI [WDR88] | 2.28 ± 0.33 | 2.61 ± 0.28 | – | –
71 | CIPASSSFVYGAVPIGASIYVIGD [GAN] | 2.97 ± 0.65 | 2.48 ± 0.61 | – | –
72 | CKVGASSDPCGQLRPTLLLTSLHH [PNLIPRP1] | 2.1 ± 0.24 | 2.22 ± 0.097 | – | –
73 | CLIQKAQWTVGKLNCPFCGARLGG [RNF180] | 2.15 ± 0.18 | 2.79 ± 0.36 | – | –
74 | CLTCGKSFRQGMHLTRHQRTHTGE [ZNF263] | 4.03 ± 0.23 | 3.98 ± 0.46 | – | –
75 | CMYRHALPPGFVLKKDKKKEEKED [ZC3H15] | 4.58 ± 0.21 | 4.67 ± 0.15 | – | –
76 | CPASNECEITKRRRKACQACRFTK [ESRRA] | 3.94 ± 0.33 | 4.26 ± 0.23 | – | –
77 | CPTFRVSIARLEMGPDEYEEMEEE [FBXO3] | 4.7 ± 0.18 | 5.07 ± 0.21 | – | –
78 | CRGKKPSRIYGQAMAIINGSLYVF [KLHDC10] | 3.22 ± 0.66 | 2.51 ± 0.73 | – | –
79 | CRVFWWLGDRDRSRAALVCRKWNQ [FBXO39] | 2.46 ± 0.87 | 2.06 ± 0.41 | – | –
80 | CSKVSELTERLKVLEAKMTMLTVI [EMID1] | 2.63 ± 0.73 | 2.46 ± 0.38 | – | –
81 | CSRQFPEFQERARKRIRTYLKSCR [NOL4L] | 3.25 ± 0.15 | 3.36 ± 0.2 | – | –
82 | CSTTDHPYKKPYMETSPSEEDSFY [TBX5] | 4.34 ± 0.13 | 4.31 ± 0.2 | – | –
83 | CTDFCLRNLDGTLGYLLDKETLRL [ZER1] | 2 ± 0.23 | 2.13 ± 0.17 | – | –
84 | CVSHLIIVTVHYGCASFIYLRPQS [OR10K2] | 2.99 ± 0.35 | 3.04 ± 0.46 | – | –
85 | DAATTDELSSLGSDSEANGFAERR [TBC1D10A] | 5.47 ± 0.34 | 5.42 ± 0.23 | – | –
86 | DALDSEGRDSEGPAEGEGRLGRCM [KCNG1] | 5.34 ± 0.28 | 5.53 ± 0.21 | – | –
87 | DANTWRLYGGMNYRRLGGGVGVIK [KLHL20] | 2.63 ± 0.24 | 2.54 ± 0.38 | – | –
88 | DCDTSSICEDSFDGRSLSKLNLCE [SCARA5] | 4.84 ± 0.16 | 5.05 ± 0.12 | – | –
89 | DCIFDKFECAWNGSDSVIMTGAYN [PPP2R2C] | 2.68 ± 0.3 | 2.74 ± 0.17 | – | –
